Assay results published in patent EP4361176A1 (CHUGAI SEIYAKU KABUSHIKI KAISHA, dated 2024).

Tests used:
[1] = target: T1, human CTLA4 (soluble analyte of the Biacore assays of Reference Example 3-3) (human, UniProt P16410 36-161); test: SPR, 1000 nM CTLA4, per unit antibody, ATP 1 uM
T1 construct: also called hCTLA4
T1 sequence: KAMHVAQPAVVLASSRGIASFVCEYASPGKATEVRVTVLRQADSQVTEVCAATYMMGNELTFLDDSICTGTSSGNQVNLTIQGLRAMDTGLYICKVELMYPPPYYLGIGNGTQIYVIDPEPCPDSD

[2] = target: T1, human CTLA4 (soluble analyte of the …); test: SPR, 1000 nM CTLA4, per unit antibody, ATP 100 uM
[3] = target: T1, human CTLA4 (soluble analyte of the …); test: SPR, 1000 nM CTLA4, per unit antibody, no ATP
[4] = target: T1, human CTLA4 (soluble analyte of the …); test: SPR, 1000 nM CTLA4, per unit antibody, ATP 10 uM
[5] = target: T2, human FcγRIIa H extracellular domain (human, UniProt P12318 34-217); test: SPR; KD for FcγRIIb divided by KD for this FcγR
T2 construct: extracellular domain; Made by the method of WO2014104165; also called hFcγR IIa H; FcyRIIaH
T2 sequence (looked up): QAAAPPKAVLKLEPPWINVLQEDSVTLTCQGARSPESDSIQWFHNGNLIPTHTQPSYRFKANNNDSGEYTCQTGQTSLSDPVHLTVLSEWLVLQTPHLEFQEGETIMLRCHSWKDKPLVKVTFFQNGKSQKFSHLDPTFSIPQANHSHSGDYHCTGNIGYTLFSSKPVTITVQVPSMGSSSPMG

[6] = target: T3, human FcγRIIIa F extracellular domain (human, UniProt P08637 17-208); test: SPR; KD for FcγRIIb divided by KD for this FcγR
T3 construct: extracellular domain; Made by the method of WO2014104165; also called hFcγR IIIa F; FcyRIIIaF

[7] = target: hFcyRIIIaV on hFcyRIIIaV-expressing Jurkat cells (human, UniProt P08637 17-254); test: cell-based or functional assay
[8] = target: T4, hFcyRIIaH on hFcyRIIaH-expressing Jurkat cells (human, UniProt P12318 34-317); test: cell-based or functional assay
T4 sequence (looked up): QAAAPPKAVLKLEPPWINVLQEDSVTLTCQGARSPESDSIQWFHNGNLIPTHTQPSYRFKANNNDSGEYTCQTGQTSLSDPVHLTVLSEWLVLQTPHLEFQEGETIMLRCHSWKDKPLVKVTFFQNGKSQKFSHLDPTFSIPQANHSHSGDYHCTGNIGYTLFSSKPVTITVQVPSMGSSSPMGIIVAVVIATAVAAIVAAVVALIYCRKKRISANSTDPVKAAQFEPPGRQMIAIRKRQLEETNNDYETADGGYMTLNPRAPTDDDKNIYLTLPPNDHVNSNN

hFcyRIIIaV on hFcyRIIIaV-expressing Jurkat cells, sequence (P08637 17-254): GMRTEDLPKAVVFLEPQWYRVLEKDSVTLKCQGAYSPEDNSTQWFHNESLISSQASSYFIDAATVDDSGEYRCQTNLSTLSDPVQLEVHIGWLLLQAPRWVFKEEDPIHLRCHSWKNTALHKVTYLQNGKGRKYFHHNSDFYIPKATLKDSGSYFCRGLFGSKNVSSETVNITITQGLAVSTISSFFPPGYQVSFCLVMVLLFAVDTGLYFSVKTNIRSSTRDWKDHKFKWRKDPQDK
T3 sequence (P08637 17-208): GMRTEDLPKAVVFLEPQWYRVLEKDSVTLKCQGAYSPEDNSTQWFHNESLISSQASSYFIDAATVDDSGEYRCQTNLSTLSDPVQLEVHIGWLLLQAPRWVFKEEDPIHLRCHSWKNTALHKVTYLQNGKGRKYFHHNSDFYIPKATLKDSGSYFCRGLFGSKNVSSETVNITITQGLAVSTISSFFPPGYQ

Binder | Binding to Human CTLA4 [1] | Binding to Human CTLA4 [2] | Binding to Human CTLA4 [3] | Binding to Human CTLA4 [4] | A/I ratio (KD for FcγRIIb divided by KD for each FcyR) [5] | A/I ratio (KD for FcγRIIb divided by KD for each FcyR) [6] | EC50 value (µg/mL), ADCC reporter bioassay (fold induction of luminescence), Hepa1-6/hEREG target cells [7] [µg/mL] | EC50 value (µg/mL), ADCP reporter bioassay (fold induction of luminescence), Hepa1-6/hEREG target cells [8] [µg/mL]
04H1207-G1m/04L1086-lam1 (antibody, human IgG1, lambda, V domains shown) VH: EVQLVESGGGLVKPGGSLRLSCAASGFTFSSKTMNWVRQAPGKGLEWVSSISTRSGYIYYAESVKGRFTISRDNAKNSLYLQMNSLRAEDTAVYYCARYGKREDMLWVFDYWGQGTLVTVSS VL: QSALTQPPSASGSPGQTVTISCDGPSTGVGDYNYVHWYQQHPGKAPKLMIYFTSKKPSGVPDRFSGSKSGNTASLTVSGLQAEDEADYFCQTYAAPLGPMFGGGTKLTVLG | 0.047 | 0.196 | 0.013 | 0.137 | – | – | – | –
04H1077-G1m/04L1041-lam1 (antibody, human IgG1, lambda, V domains shown) VH: EVQLVESGGDLVKPGGGLRLSCAASGFTFSSRTMNWVRQAPGKGLEWVSSISTRSGYIYYAESVKGRFTISRDNAKNSLYLQMNSLRAEDTAVYYCARYGKREDMLWVFDYWGQGTLVTVSS VL: QSALTQPPSASGSPGQTVTISCDGPSTDVGDYNYVHWYQQHPGKAPKLMIYFTSKKPSGVPDRFSGSKSGNTASLTVSGLQAEDEADYFCSTYAAPLGPMFGGGTKLTVLG | 0.023 | 0.172 | 0.006 | 0.094 | – | – | – | –
04H1077-G1m/04L1066-lam1 (antibody, human IgG1, lambda, V domains shown) VH: EVQLVESGGDLVKPGGGLRLSCAASGFTFSSRTMNWVRQAPGKGLEWVSSISTRSGYIYYAESVKGRFTISRDNAKNSLYLQMNSLRAEDTAVYYCARYGKREDMLWVFDYWGQGTLVTVSS VL: QSALTQPPSASGSPGQTVTISCDGPSTDVGDYNWVHWYQQHPGKAPKLMIYFTSKKPSGVPDRFSGSKSGNTASLTVSGLQAEDEADYFCSTYAAPLGPMFGGGTKLTVLG | 0.057 | 0.185 | 0.02 | 0.142 | – | – | – | –
04H1077-G1m/04L1067-lam1 (antibody, human IgG1, lambda, V domains shown) VH: EVQLVESGGDLVKPGGGLRLSCAASGFTFSSRTMNWVRQAPGKGLEWVSSISTRSGYIYYAESVKGRFTISRDNAKNSLYLQMNSLRAEDTAVYYCARYGKREDMLWVFDYWGQGTLVTVSS VL: QSALTQPPSASGSPGQTVTISCDGPSTGVGDYNYVHWYQQHPGKAPKLMIYFTSKKPSGVPDRFSGSKSGNTASLTVSGLQAEDEADYFCSTYAAPLGPMFGGGTKLTVLG | 0.041 | 0.192 | 0.012 | 0.131 | – | – | – | –
04H1077-G1m/04L1305-k0MT (antibody, human IgG1, kappa, V domains shown) VH: EVQLVESGGDLVKPGGGLRLSCAASGFTFSSRTMNWVRQAPGKGLEWVSSISTRSGYIYYAESVKGRFTISRDNAKNSLYLQMNSLRAEDTAVYYCARYGKREDMLWVFDYWGQGTLVTVSS VL: DIVMTQSPLSLPVTPGEPASISCDGPSTGVGDYNYVHWYQQKPGQAPRLLIYFTSKKPSGVPDRFSGSGSGTDFTLKISRVEAEDVGVYYCQTYAAPLGPMFGQGTKLEIKR | 0.046 | 0.185 | 0.018 | 0.128 | – | – | – | –
04H1208-G1m/04L1086-lam1 (antibody, human IgG1, lambda, V domains shown) VH: EVQLVESGGGLVKPGGSLRLSCAASGFTFSSKTMNWVRQAPGKGLEWVSSISTRSGYIYYARSVKGRFTISRDNAKNSLYLQMNSLRAEDTAVYYCARYGKREDMLWVFDYWGQGTLVTVSS VL: QSALTQPPSASGSPGQTVTISCDGPSTGVGDYNYVHWYQQHPGKAPKLMIYFTSKKPSGVPDRFSGSKSGNTASLTVSGLQAEDEADYFCQTYAAPLGPMFGGGTKLTVLG | 0.03 | 0.17 | 0.005 | 0.108 | – | – | – | –
04H1077-G1m/04L1086-lam1 (antibody, human IgG1, lambda, V domains shown) VH: EVQLVESGGDLVKPGGGLRLSCAASGFTFSSRTMNWVRQAPGKGLEWVSSISTRSGYIYYAESVKGRFTISRDNAKNSLYLQMNSLRAEDTAVYYCARYGKREDMLWVFDYWGQGTLVTVSS VL: QSALTQPPSASGSPGQTVTISCDGPSTGVGDYNYVHWYQQHPGKAPKLMIYFTSKKPSGVPDRFSGSKSGNTASLTVSGLQAEDEADYFCQTYAAPLGPMFGGGTKLTVLG | 0.031 | 0.181 | 0.01 | 0.106 | – | – | – | –
04H1077-G1m/04L1034-lam1 (antibody, human IgG1, lambda, V domains shown) VH: EVQLVESGGDLVKPGGGLRLSCAASGFTFSSRTMNWVRQAPGKGLEWVSSISTRSGYIYYAESVKGRFTISRDNAKNSLYLQMNSLRAEDTAVYYCARYGKREDMLWVFDYWGQGTLVTVSS VL: QSALTQPPSASGSPGQTVTISCDGPSTDVGDYNWVSWYQQHPGKAPKLMIYFTSKKPSGVPDRFSGSKSGNTASLTVSGLQAEDEADYFCSTYAAPLGPMFGGGTKLTVLG | 0.007 | 0.114 | 0.004 | 0.041 | – | – | – | –
H240-GASDALIE/L73-k0 (antibody, human IgG1, kappa) heavy: QDQLVQSGAEVKKPGASVKVSCKASGFNIKDTYIQWVRQAPGQGLEWMGRIDPLRKQTKYREKFEGRVTITADTSTNTAYMELSSLRSEDTAVYYCVRSGREFDYWGQGTLVTVSSASTKGPSVFPLAPSSKSTSGGTAALGCLVKDYFPEPVTVSWNSGALTSGVHTFPAVLQSSGLYSLSSVVTVPSSSLGTQTYICNVNHKPSNTKVDKKVEPKSCDKTHTCPPCPAPELLAGPDVFLFPPKPKDTLMISRTPEVTCVVVDVSHEDPEVKFNWYVDGVEVHNAKTKPREEQYNSTYRVVSVLTVLHQDWLNGKEYKCKVSNKALPLPEEKTISKAKGQPREPQVYTLPPSRDELTKNQVSLTCLVKGFYPSDIAVEWESNGQPENNYKTTPPVLDSDGSFFLYSKLTVDKSRWQQGNVFSCSVMHEALHNHYTQKSLSLSP light: DIQMTQSPSSLSASVGDRVTITCRASQDIHKYIAWYQQKPGQAPRLLIQYTSTLQPGVPSRFSGSGSGTDYTFTISSLQPEDIATYYCLQYEQLRTFGGGTKVEIKRTVAAPSVFIFPPSDEQLKSGTASVVCLLNNFYPREAKVQWKVDNALQSGNSQESVTEQDSKDSTYSLSSTLTLSKADYEKHKVYACEVTHQGLSSPVTKSFNRGEC | – | – | – | – | 16.5 | 89.3 | 0.00208 | 0.0324
H240-Kn037/L73-k0//H240-Hl036/L73-k0 (antibody, human IgG1, kappa, also called EGL-GASDIE; GASDIE) heavy 1: QDQLVQSGAEVKKPGASVKVSCKASGFNIKDTYIQWVRQAPGQGLEWMGRIDPLRKQTKYREKFEGRVTITADTSTNTAYMELSSLRSEDTAVYYCVRSGREFDYWGQGTLVTVSSASTKGPSVFPLAPSSKSTSGGTAALGCLVKDYFPEPVTVSWNSGALTSGVHTFPAVLQSSGLYSLSSVVTVPSSSLGTQTYICNVNHKPSNTKVDKKVEPKSCDKTHTCPPCPAPELLAGPDVFLFPPKPKDTLMISRTPEVTCVVVDVSHEDPEVKFNWYVDGVEVHNAKTKPREEQYNSTYRVVSVLTVLHQDWLNGKEYKCKVSNKALPAPEEKTISKAKGQPREPQVCTLPPSRDELTKNQVSLWCLVKGFYPSDIAVEWESNGQPENNYKTTPPVLDSDGSFFLYSKLTVDKSRWQQGNVFSCSVMHEALHNHYTQKSLSLSP heavy 2: QDQLVQSGAEVKKPGASVKVSCKASGFNIKDTYIQWVRQAPGQGLEWMGRIDPLRKQTKYREKFEGRVTITADTSTNTAYMELSSLRSEDTAVYYCVRSGREFDYWGQGTLVTVSSASTKGPSVFPLAPSSKSTSGGTAALGCLVKDYFPEPVTVSWNSGALTSGVHTFPAVLQSSGLYSLSSVVTVPSSSLGTQTYICNVNHKPSNTKVDKKVEPKSCDKTHTCPPCPAPELLAGPDVFLFPPKPKDTLMISRTPEVTCVVVDVSHEDPEVKFNWYVDGVEVHNAKTKPREEQYNSTYRVVSVLTVLHQDWLNGKEYKCKVSNKALPAPEEKTISKAKGQPREPQVYTLPPSRCELTKNQVSLSCAVKGFYPSDIAVEWESNGQPENNYKTTPPVLDSDGSFFLVSKLTVDKSRWQQGNVFSCSVMHEALHNHYTQKSLSLSP light: DIQMTQSPSSLSASVGDRVTITCRASQDIHKYIAWYQQKPGQAPRLLIQYTSTLQPGVPSRFSGSGSGTDYTFTISSLQPEDIATYYCLQYEQLRTFGGGTKVEIKRTVAAPSVFIFPPSDEQLKSGTASVVCLLNNFYPREAKVQWKVDNALQSGNSQESVTEQDSKDSTYSLSSTLTLSKADYEKHKVYACEVTHQGLSSPVTKSFNRGEC | – | – | – | – | 18.2 | 18.9 | 0.0037 | 0.0149
